Where “and” joins values, the source holds several entries; their conditions need not be identical. Identical values can stand only once.
Target: melanin-concentrating hormone receptor 1 (MCHR1) from I3.4.2 cells (human) (UniProt Q99705)
Test: cell-based or functional assay

Sequence of melanin-concentrating hormone receptor 1 (MCHR1) from I3.4.2 cells (human) (Q99705 whole entry): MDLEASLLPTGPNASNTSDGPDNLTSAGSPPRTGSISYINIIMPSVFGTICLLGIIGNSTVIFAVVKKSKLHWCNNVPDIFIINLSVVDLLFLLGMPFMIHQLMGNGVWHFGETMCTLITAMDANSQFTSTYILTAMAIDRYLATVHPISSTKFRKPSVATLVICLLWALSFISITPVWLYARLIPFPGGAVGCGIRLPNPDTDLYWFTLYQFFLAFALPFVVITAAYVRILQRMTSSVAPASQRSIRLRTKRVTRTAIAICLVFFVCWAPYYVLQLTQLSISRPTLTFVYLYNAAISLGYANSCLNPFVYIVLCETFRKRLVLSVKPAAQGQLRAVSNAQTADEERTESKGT

melanin-concentrating hormone (MCH) (from UniProt P20382 147-165) (peptide)
Ca++ response to 1 uM MCH, relative fluorescence units (FLIPR), baseline approximately 700 RFU: 5000 RFU and 6000 RFU | EC50 for MCH-mediated Ca++-mobilization (fluorometric imaging plate reader) on I3.4.2 cells: 90 nM | EC50 for receptor activation, Ca++-mobilization assay (FLIPR) on T42402I3.4.2 cells: 80 nM
